The source of these data is US20110165143A1, “MODULATION OF CASPASES AND THERAPEUTICAL APPLICATIONS” (The Regents of the University of Colorado, a body corporate, priority 2010, published 2011).

The test system of series [1] is Fluc-labeled 4T1 cells. Nature of the series: In vivo tumor growth from a small number of subcutaneously injected Fluc-labeled 4T1 cells. Also noted: species or system mice. The note with it: about 1000 subcutaneously injected Fluc-labeled 4T1 cells. The protocol:
Growth of Fluc-labeled tumor cells in vivo was followed through non-invasive bioluminescence imaging using the IVIS200 instrument (Caliper Life Sciences, Hopkinton, Mass.). Mice to be imaged were injected with 150 mg/kg of D-luciferin (obtained from Caliper Life Sciences) intraperitoneally in 200 μl of PBS and then anesthetized with continuous flow of isofluorane. Imaging of the mice was carried out 10 minutes later. The time between injection and imaging was kept constant among different batches of mice.
Different approaches were used to establish tumor growth than traditionally adopted by other studies. In most of the studies, only a very small number of Fluc-labeled tumor cells (500-1000 cells each) were injected either alone or together with other unlabeled cells (either tumor cells or fibroblast cells) that were either irradiated or un-irradiated. Tumor growth in these cells was monitored through the quantification of bioluminescence signals emitted from labeled tumor cells by using the IVIS200 instrument following manufacturer's instructions.
As PGE2 had been implicated as a regulator of tumor growth, its effect on in vivo tumor growth was evaluated from a small number of Fluc-labeled 4T1 cells.

The test system of series [2] is 4T1Fluc cells. In words: Growth of Fluc-labeled tumor cells seeded onto dying feeder cells killed by cytotoxic treatment. The class given is cell-based, mouse. As to conditions: dying feeder cells killed by a treatment other than radiation.
In series [3] the test system is 4T1Fluc cells. In words: Growth of 4T1Fluc tumor cells plated with lethally irradiated NIH3T3 cells, bioluminescence imaging. The class given is cell-based, mouse. The note with it: about 1000 4T1Fluc cells plated with lethally irradiated NIH3T3 cells plus inhibitor (FIG. 4). The protocol:
FIG. 4 is a graph showing the effect of a caspase inhibitor z-VAD-fmk on 4T1Fluc tumor cell growth when plated with lethally irradiated NIH3T3 cells. About 1000 4T1Fluc cells were plated either alone, with non-irradiated NIH3T3 cells, or with lethally irradiated NIH3T3 cells plus a pan-caspase inhibitor z-VAD-fmk.
For imaging luciferase, the IVIS200 instrument from Caliper Life Sciences (Hopkinton, Mass.) was used. For tissue cultured cells, luciferase signal was imaged by adding PBS or colorless OptiMEM medium (Invitrogen, Carlsbad, Calif.) with D-luciferin (Caliper Life Sciences, Hopkinton, Mass.) at a concentration of 0.15 mg/ml. The cells were imaged at a set time point (e.g., 10 minutes) after the administration of D-luciferin. This allowed the signals from different samples to be compared. After images were taken, the manufacturer supplied software was used to process the images for quantitative data.
In order to rule out the possibility that caspase 3 mediates its growth-promoting function through a non-proteolytic mechanism, experiments were conducted using a pan-caspase inhibitor z-VAD-fmk to treat irradiated cells. […] A further, more definitive confirmation came from experiments where a dominant-negative version of caspase 3 was stably transduced into 4T1 cells. The dominant-negative caspase 3 (DN-casp3) differs with wild type caspase 3 in only one amino acid (C163A). […]

For series [4], the system named is IMR90 cells. Nature of the series: iPSC induction from IMR90 fibroblasts transduced with transcription factor cocktails. The class given is cell-based, human. The note with it: for increase in frequency of OSNL-induced iPSC formation: IMR90 cells; for suppression / reduction in the frequency of iPSC induction: IMR90 cells stably transduced with the agent. The text has this: The caspase reporters were transduced into human IMR90 fibroblasts via recombinant lentivirus vectors. After puromycin selection to ensure stable integration of the reporters, the iPSC reprogramming process was initiated by infecting caspase reporter-transduced IMR90 cells with recombinant lentivirus vectors carrying 4 transcription factors (Oct-4, Sox2, Nanog, and Lin28, or OSNL in abbreviation) that are known to induce iPSC formation. To avoid the use of myc, which is known to induce caspase activation and might confound the results, the OSNL protocol was chosen because it was shown not to be essential for iPSC induction.
In order to determine whether the observed caspases 3 and 8 activation had any functional relevance in iPSC induction, down-regulation of caspase activities in OSNL-transduced cells was attempted. In the initial experiment, CrmA was we stably transduced through lentiviral vectors, a cow pox virus protein known to suppress caspases 1 and 8 activities, into IMR90 cells. […] This was a very surprising result because logically one would expect that inhibiting caspase activation would lead to increased iPSC generation because of reduced cell death.
Because CrmA inhibits both caspases 1 and 8, more specific approaches were used to determine which caspase was involved. First, a siRNA-based knockdown approach was used. In this approach, lentiviral vectors encoding either caspase 1- or caspase 8-targeted shRNA was used to infect IMR90 cells. After selecting for cells with stable shRNA knockdown (as verified by western blot analysis), they were infected with OSNL lentivector cocktail.
To provide further proof that the cleavage activities of caspases 3 and 8 are necessary for iPSC formation, lentiviral vectors encoding dominant-negative forms of caspases 3 and 8 were constructed. The dominant negative form of human caspase 8 gene (casp8-DN) encodes a virtually identical protein as the wild type except a single amino acid change (i.e. C360A), which disables its catalytic proteolytic function. This dominant negative form was cloned into a recombinant lentiviral vector. Similarly, the dominant negative form of caspase 3 (Casp3-DN), which contains a single mutation (C163A) that disables its proteolytic function, was also cloned into a lentiviral vector.
When IMR90 cells stably transduced with a lentiviral vector encoding casp8-DN were infected with the OSNL lentiviral cocktail, no iPSC induction process was observed.

Peptide text beside a SMILES is read from it. * marks the point of attachment. Cbz = O=C(OCc1ccccc1)*; CH2F = FC*

With `CCCCC[C@H](O)/C=C/[C@H]1[C@H](O)CC(=O)[C@@H]1C/C=C\CCCC(=O)O` [PGE2, prostaglandin E2], the “effect on in vivo tumor growth” value in series [1] is “significantly stimulate tumor growth”.
Consider `COc1cc([C@@H]2c3cc4c(cc3[C@@H](O[C@@H]3O[C@@H]5CO[C@@H](C)O[C@H]5[C@H](O)[C@H]3O)[C@H]3COC(=O)[C@H]23)OCO4)cc(OC)c1O` [etoposide], for which the “growth-enhancing function conferred on dying cells by the cytotoxic treatment” value in series [2] is on record as “engender significant growth-enhancing functions to dying cells”.
For the molecule `COC(=O)C[C@H](NC(=O)[C@H](C)NC(=O)[C@@H](NC(=O)OCc1ccccc1)C(C)C)C(=O)CF` [z-VAD-fmk] (Cbz-Val-Ala-Asp(OMe)-CH2F), the “effect on growth-promoting properties of irradiated cells towards 4T1Fluc tumor cell growth” value in series [3] is “eliminated the growth-promoting properties of irradiated cells”.
“E7: human papilloma virus type 16 E7 protein, known to inhibit Rb function, co-transduced with OSNL”: the “increase in frequency of OSNL-induced iPSC formation” value in series [4] was around 5 fold.

B1: casp8-DN: dominant negative form of human caspase 8 (C360A), lentiviral vector encoded (protein, UniProt Q14790 1-479, looked up, variant C360A)
chain: MDFSRNLYDIGEQLDSEDLASLKFLSLDYIPQRKQEPIKDALMLFQRLQEKRMLEESNLSFLKELLFRINRLDLLITYLNTRKEEMERELQTPGRAQISAYRVMLYQISEEVSRSELRSFKFLLQEEISKCKLDDDMNLLDIFIEMEKRVILGEGKLDILKRVCAQINKSLLKIINDYEEFSKERSSSLEGSPDEFSNGEELCGVMTISDSPREQDSESQTLDKVYQMKSKPRGYCLIINNHNFAKAREKVPKLHSIRDRNGTHLDAGALTTTFEELHFEIKPHDDCTVEQIYEILKIYQLMDHSNMDCFICCILSHGDKGIIYGTDGQEAPIYELTSQFTGLKCPSLAGKPKVFFIQAAQGDNYQKGIPVETDSEEQPYLEMDLSSPQTRYIPDEADFLLGMATVNNCVSYRNPAEGTWYIQSLCQSLRERCPRGDDILTILTEVNYEVSNKDDKKNMGKQMPQPTFTLRKKLVFPSD
modifications: full-length lentiviral vector encoded
notes: dominant negative form of human caspase 8 (C360A), lentiviral vector encoded
For B1, the iPSC clones observed result in series [4] (OSNL lentiviral cocktail, after 25 days of culture, wild type IMR90 around 550 clones/5×10^5 cells) is “No iPSC clones were observed”. In addition, in series [4] (transduced together with OSKM), the “suppression of iPSC induction” value is on record as “over 95%”.

B2: Rb: human Rb gene over-expressed from a lentiviral expression vector (protein, UniProt P06400 2-928, looked up)
Retinoblastoma-associated …: PPKTPRKTAATAAAAAAEPPAPPPPPPPEEDPEQDSGPEDLPLVRLEFEETEEPDFTALCQKLKIPDHVRERAWLTWEKVSSVDGVLGGYIQKKKELWGICIFIAAVDLDEMSFTFTELQKNIEISVHKFFNLLKEIDTSTKVDNAMSRLLKKYDVLFALFSKLERTCELIYLTQPSSSISTEINSALVLKVSWITFLLAKGEVLQMEDDLVISFQLMLCVLDYFIKLSPPMLLKEPYKTAVIPINGSPRTPRRGQNRSARIAKQLENDTRIIEVLCKEHECNIDEVKNVYFKNFIPFMNSLGLVTSNGLPEVENLSKRYEEIYLKNKDLDARLFLDHDKTLQTDSIDSFETQRTPRKSNLDEEVNVIPPHTPVRTVMNTIQQLMMILNSASDQPSENLISYFNNCTVNPKESILKRVKDIGYIFKEKFAKAVGQGCVEIGSQRYKLGVRLYYRVMESMLKSEEERLSIQNFSKLLNDNIFHMSLLACALEVVMATYSRSTSQNLDSGTDLSFPWILNVLNLKAFDFYKVIESFIKAEGNLTREMIKHLERCEHRIMESLAWLSDSPLFDLIKQSKDREGPTDHLESACPLNLPLQNNHTAADMYLSPVRSPKKKGSTTRVNSTANAETQATSAFQTQKPLKSTSLSLFYKKVYRLAYLRLNTLCERLLSEHPELEHIIWTLFQHTLQNEYELMRDRHLDQIMMCSMYGICKVKNIDLKFKIIVTAYKDLPHAVQETFKRVLIKEEEYDSIIVFYNSVFMQRLKTNILQYASTRPPTLSPIPHIPRSPYKFPSSPLRIPGGNIYISPLKSPYKISEGLPTPTKMTPRSRILVSIGESFGTSEKFQKINQMVCNSDRVLKRSAEGSNPPKPLKKLRFDIEGSDEADGSKHLPGESKFQQKLAEMTSTRTRMQKQKMNDSMDTSNKEEK
modifications: lentiviral expression
notes: human Rb gene over-expressed from a lentiviral expression vector
Turning to B2, in series [4] (OSNL lentiviral cocktail), the “suppression / reduction in the frequency of iPSC induction” value (“suppression / reduction in the frequency” below) is “about 50%”.

B3: shRNA targeted to Rb: lentiviral vector-encoded shRNA against human Rb, Open Biosystems (nucleic acid)
DNA: TGCTGTTGACAGTGAGCGCGGATATAGGATACATCTTTAATAGTGAAGCCACAGATGTATTAAAGATGTATCCTATATCCTTGCCTACTGCCTCGGA
modifications: the letters are possibly those of the target site
notes: lentiviral vector-encoded shRNA against human Rb, Open Biosystems
For B3, the “increase in frequency of OSNL-induced iPSC formation” value in series [4] was “almost doubled”.

B4: dominant negative caspase 3 (C163A): dominant negative form of caspase 3 with single mutation C163A, lentiviral vector encoded (protein, UniProt P42574 1-277, looked up, variant C163A)
chain: MENTENSVDSKSIKNLEPKIIHGSESMDSGISLDNSYKMDYPEMGLCIIINNKNFHKSTGMTSRSGTDVDAANLRETFRNLKYEVRNKNDLTREEIVELMRDVSKEDHSKRSSFVCVLLSHGEEGIIFGTNGPVDLKKITNFFRGDRCRSLTGKPKLFIIQAARGTELDCGIETDSGVDDDMACHKIPVEADFLYAYSTAPGYYSWRNSKDGSWFIQSLCAMLKQYADKLEFMHILTRVNRKVATEFESFSFDATFHAKKQIPCIVSMLTKELYFYH
modifications: full-length lentiviral vector encoded
notes: dominant negative form of caspase 3 with single mutation C163A, lentiviral vector encoded
With B4, the “suppression / reduction in the frequency” value in series [4] (OSNL lentiviral cocktail) is “about 80%”.

B5: shRNA targeted to caspase 1: lentiviral vector-encoded shRNA against human caspase 1, Open Biosystems (nucleic acid)
DNA: TGCTGTTGACAGTGAGCGCGCAATCTTTAACATGTTGAATTAGTGAAGCCACAGATGTAATTCAACATGTTAAAGATTGCATGCCTACTGCCTCGGA
modifications: the letters are possibly those of the target site
notes: lentiviral vector-encoded shRNA against human caspase 1, Open Biosystems
Regarding B5, the “suppression / reduction in the frequency” value in series [4] (OSNL lentiviral cocktail) was “no significant effect”.
